This assay deals with T1, recombinant murine ACE2 (angiotensin-converting enzyme 2), extracellular domain (murine), Q8R0I0.
T1 chain: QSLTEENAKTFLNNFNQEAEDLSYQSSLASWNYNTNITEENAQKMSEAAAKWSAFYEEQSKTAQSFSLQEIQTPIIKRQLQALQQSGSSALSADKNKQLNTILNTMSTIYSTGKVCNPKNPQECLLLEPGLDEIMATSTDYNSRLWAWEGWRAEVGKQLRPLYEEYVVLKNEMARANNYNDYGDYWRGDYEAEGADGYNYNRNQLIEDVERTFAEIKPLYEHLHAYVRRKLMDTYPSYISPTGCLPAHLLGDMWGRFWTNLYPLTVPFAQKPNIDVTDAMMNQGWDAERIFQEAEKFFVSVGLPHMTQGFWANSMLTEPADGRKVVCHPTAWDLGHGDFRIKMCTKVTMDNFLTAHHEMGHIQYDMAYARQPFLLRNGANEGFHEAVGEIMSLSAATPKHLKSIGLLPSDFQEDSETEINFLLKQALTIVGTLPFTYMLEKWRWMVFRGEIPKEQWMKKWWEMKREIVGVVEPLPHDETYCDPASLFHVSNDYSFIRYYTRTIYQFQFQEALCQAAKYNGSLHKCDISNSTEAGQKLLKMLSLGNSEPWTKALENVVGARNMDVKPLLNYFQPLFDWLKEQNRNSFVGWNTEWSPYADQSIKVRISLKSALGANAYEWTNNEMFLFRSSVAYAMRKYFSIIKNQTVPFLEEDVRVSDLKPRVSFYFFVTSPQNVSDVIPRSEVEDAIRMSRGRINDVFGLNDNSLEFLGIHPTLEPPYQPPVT
The experiment in a line: native gel or EMSA; native PAGE, 2 ug protein on a precast native 3-12% gradient gel, Bis/Tris-Tricine buffers, 150 V for 80 min, Coomassie stain; single band at approximately 170 kDa; monomer to dimer. Conditions: remark: other sources report otherwise.

The record followed here is publication PMC3299299, “Recombinant Expression and Characterization of Human and Murine ACE2: Species-Specific Activation of the Alternative Renin-Angiotensin-System” (International Journal of Hypertension, 2012).

What is called stoichiometry N is a count of units in the complex or per binding partner.

B1: recombinant murine ACE2 (angiotensin-converting enzyme 2), extracellular domain, Q8R0I0 18-740 (enzyme)
chain: T1 chain
Turning to B1, the stoichiometry N was 2.
